Measurements: patent US20220096654A1, “PYRROLOBENZODIAZEPINE-ANTIBODY CONJUGATES AND USES THEREOF” (ADC THERAPEUTICS SA, priority 2020, published 2022)

B1: YTH54.12-B2: rat IgG2b anti-CD45 antibody YTH54.12 conjugated to PBD drug-linker B2 (drawing 44) (conjugate)
heavy: EVQLVESGGGLVQPGGSMKLSCAASGFTFSDYYMAWVRQAPKKGLEWVASMSFAGSSTYYGDSVKGRFTISRDNAKTTLYLQMNSLRSEDTATYYCARMYTTDYYLYWYFDFWGPGTMVTVSSAQTTAPSVYPLAPGCGDTTSSTVTLGCLVKGYFPEPVTVTWNSGALSSDVHTFPAVLQSGLYTLTSSVTSSTWPSQTVTCNVAHPASSTKVDKKVERRNGGIGHKCPTCPTCHKCPVPELLGGPSVFIFPPKPKDILLISQNAKVTCVVVDVSEEEPDVQFSWFVNNVEVHTAQTQPREEQYNSTFRVVSALPIQHQDWMSGKEFKCKVNNKALPSPIEKTISKPKGLVRKPQVYVMGPPTEQLTEQTVSLTCLTSGFLPNDIGVEWTSNGHIEKNYKNTEPVMDSDGSFFMYSKLNVERSRWDSRAPFVCSVVHEGLHNHHVEKSISRPPGK
light: DVQMTQSPSYLAASPGESVSISCKASKSISNYLAWYQQKPGEANKILIYSGSTLQSGTPSRFSGSGSGTDFSLTIRNLEPEDFAVYYCQQYDEKPLTFGSGTKLEIKRADAAPTVSIFPPSMEQLTSGGATVVCFVNNFYPRDISVKWKIDGSEQRDGVLDSVTDQDSKDSTYSMSSTLSLTKVEYERHNLYTCEVVHKTSSSPVVKSFNRNEC
B2: YTH24.5-rat IgG2b-PBD (drug-linker B1) (antibody, V domains shown)
VH: QVNLLQSGAALVKPGASVKLSCKASSYTFTDYYIHWVKQSHGKTLEWIGYINPKSGFTNYNEKFRRKATLTVDKSTNTAYMDISRLTSEDSATYYCTRRTGVIPMDAWGQGASVTVSS
VL: DVVMTQTPVSLSVSLGGQVSISCRSSQSFVSSDGNTYLNWYLQKPGQSPQLLIYKVSNRLSGVPDRFSGSGSGTDFTLKISRVEHDDLGVYYCGQASKIPLTFGSGTKLEIKR
modifications: PBD dimer drug-linker B1; light chains unconjugated or attached to a single molecule of B1; sites not given; PBD dimer drug-linker B1 conjugated after TCEP reduction; heavy chains attached to up to five molecules of B1; sites not given; DAR 1.94 (preparation) / 2.00
B3: YTH24.5-B2 (antibody, V domains shown)
VH: QVNLLQSGAALVKPGASVKLSCKASSYTFTDYYIHWVKQSHGKTLEWIGYINPKSGFTNYNEKFRRKATLTVDKSTNTAYMDISRLTSEDSATYYCTRRTGVIPMDAWGQGASVTVSS
VL: DVVMTQTPVSLSVSLGGQVSISCRSSQSFVSSDGNTYLNWYLQKPGQSPQLLIYKVSNRLSGVPDRFSGSGSGTDFTLKISRVEHDDLGVYYCGQASKIPLTFGSGTKLEIKR
modifications: PBD drug-linker B2 conjugated; sites and DAR not stated
B4: YTH24.5-B7 (antibody, V domains shown)
VH: QVNLLQSGAALVKPGASVKLSCKASSYTFTDYYIHWVKQSHGKTLEWIGYINPKSGFTNYNEKFRRKATLTVDKSTNTAYMDISRLTSEDSATYYCTRRTGVIPMDAWGQGASVTVSS
VL: DVVMTQTPVSLSVSLGGQVSISCRSSQSFVSSDGNTYLNWYLQKPGQSPQLLIYKVSNRLSGVPDRFSGSGSGTDFTLKISRVEHDDLGVYYCGQASKIPLTFGSGTKLEIKR
modifications: PBD drug-linker B7 conjugated; sites and DAR not stated
B5: YTH24.5-B4 (antibody, V domains shown)
VH: QVNLLQSGAALVKPGASVKLSCKASSYTFTDYYIHWVKQSHGKTLEWIGYINPKSGFTNYNEKFRRKATLTVDKSTNTAYMDISRLTSEDSATYYCTRRTGVIPMDAWGQGASVTVSS
VL: DVVMTQTPVSLSVSLGGQVSISCRSSQSFVSSDGNTYLNWYLQKPGQSPQLLIYKVSNRLSGVPDRFSGSGSGTDFTLKISRVEHDDLGVYYCGQASKIPLTFGSGTKLEIKR
modifications: PBD drug-linker B4 (non-cleavable) conjugated; sites and DAR not stated
B6: YTH24.5-hIgG1-AAA-PBD (antibody, DAR 2.08, V domains shown)
VH: QVNLLQSGAALVKPGASVKLSCKASSYTFTDYYIHWVKQSHGKTLEWIGYINPKSGFTNYNEKFRRKATLTVDKSTNTAYMDISRLTSEDSATYYCTRRTGVIPMDAWGQGASVTVSS
VL: DVVMTQTPVSLSVSLGGQVSISCRSSQSFVSSDGNTYLNWYLQKPGQSPQLLIYKVSNRLSGVPDRFSGSGSGTDFTLKISRVEHDDLGVYYCGQASKIPLTFGSGTKLEIK
B7: YTH54.12-hIgG1-AAA-PBD (antibody, DAR 2.10, V domains shown)
VH: EVQLVESGGGLVQPGGSMKLSCAASGFTFSDYYMAWVRQAPKKGLEWVASMSFAGSSTYYGDSVKGRFTISRDNAKTTLYLQMNSLRSEDTATYYCARMYTTDYYLYWYFDFWGPGTMVTVSS
VL: DVQMTQSPSYLAASPGESVSISCKASKSISNYLAWYQQKPGEANKILIYSGSTLQSGTPSRFSGSGSGTDFSLTIRNLEPEDFAVYYCQQYDEKPLTFGSGTKLEIK
B8: YTH54.12-rat IgG2b-PBD (drug-linker B1) (antibody, V domains shown)
VH: EVQLVESGGGLVQPGGSMKLSCAASGFTFSDYYMAWVRQAPKKGLEWVASMSFAGSSTYYGDSVKGRFTISRDNAKTTLYLQMNSLRSEDTATYYCARMYTTDYYLYWYFDFWGPGTMVTVSS
VL: DVQMTQSPSYLAASPGESVSISCKASKSISNYLAWYQQKPGEANKILIYSGSTLQSGTPSRFSGSGSGTDFSLTIRNLEPEDFAVYYCQQYDEKPLTFGSGTKLEIKR
modifications: PBD dimer drug-linker B1; light chains unconjugated or attached to a single molecule of B1; sites not given; PBD dimer drug-linker B1 conjugated after TCEP reduction; heavy chains attached to up to five molecules of B1; sites not given; DAR 1.90 (preparation) / 2.00
B9: YTH54.12-B2 (antibody, V domains shown)
VH: EVQLVESGGGLVQPGGSMKLSCAASGFTFSDYYMAWVRQAPKKGLEWVASMSFAGSSTYYGDSVKGRFTISRDNAKTTLYLQMNSLRSEDTATYYCARMYTTDYYLYWYFDFWGPGTMVTVSS
VL: DVQMTQSPSYLAASPGESVSISCKASKSISNYLAWYQQKPGEANKILIYSGSTLQSGTPSRFSGSGSGTDFSLTIRNLEPEDFAVYYCQQYDEKPLTFGSGTKLEIKR
modifications: PBD drug-linker B2 conjugated; sites and DAR not stated
B10: YTH54.12-B7 (antibody, V domains shown)
VH: EVQLVESGGGLVQPGGSMKLSCAASGFTFSDYYMAWVRQAPKKGLEWVASMSFAGSSTYYGDSVKGRFTISRDNAKTTLYLQMNSLRSEDTATYYCARMYTTDYYLYWYFDFWGPGTMVTVSS
VL: DVQMTQSPSYLAASPGESVSISCKASKSISNYLAWYQQKPGEANKILIYSGSTLQSGTPSRFSGSGSGTDFSLTIRNLEPEDFAVYYCQQYDEKPLTFGSGTKLEIKR
modifications: PBD drug-linker B7 conjugated; sites and DAR not stated
B11: YTH54.12-B4 (antibody, V domains shown)
VH: EVQLVESGGGLVQPGGSMKLSCAASGFTFSDYYMAWVRQAPKKGLEWVASMSFAGSSTYYGDSVKGRFTISRDNAKTTLYLQMNSLRSEDTATYYCARMYTTDYYLYWYFDFWGPGTMVTVSS
VL: DVQMTQSPSYLAASPGESVSISCKASKSISNYLAWYQQKPGEANKILIYSGSTLQSGTPSRFSGSGSGTDFSLTIRNLEPEDFAVYYCQQYDEKPLTFGSGTKLEIKR
modifications: PBD drug-linker B4 (non-cleavable) conjugated; sites and DAR not stated

How the values were obtained:
Nalm6 (CD45-) = assay: Cell viability assay 5 days (PrestoBlue), Nalm6; type: cell-based, human; conditions: rat IgG2b ADC, n=3
Protocol: (§1) OCIM1, Jurkat and Nalm6 cells were seeded at a final concentration of 1.275×10^4/mL and for 5 days in presence of rat IgG2b Mab or ADC or medium (in triplicate) in wells of flat bottom 96-well plates. 293T cells were seeded at 9.3×10^3 cells per 100 uL per well in flat bottom 96-well plates and allowed to adhere the plate for up to 24 hours. 293T cells were subsequently cultured with rat IgG2b Mabs or ADC or medium (in triplicate wells) as described above. PrestoBlue® Cell viability Reagent (Thermo Fisher Scientific) was added to each and incubated for up to 1.5 hours. Fluorescence intensity from each well was detected using a FLUOstar OPTIMA microplate reader (BMG Labtech). Data was plotted using Prism 8.0 and sigmoid dose-response non-linear regression was used to determine EC50 values. Data points are mean±s.d. for representative experiments.

293T (CD45-) = assay: Cell viability assay 5 days (PrestoBlue), 293T; type: cell-based, human; conditions: rat IgG2b ADC, n=3
Protocol: as §1

human CD45 [1] = target: T1, human CD45 (human, UniProt P08575 26-1306); assay: cell-based or functional assay
T1 sequence: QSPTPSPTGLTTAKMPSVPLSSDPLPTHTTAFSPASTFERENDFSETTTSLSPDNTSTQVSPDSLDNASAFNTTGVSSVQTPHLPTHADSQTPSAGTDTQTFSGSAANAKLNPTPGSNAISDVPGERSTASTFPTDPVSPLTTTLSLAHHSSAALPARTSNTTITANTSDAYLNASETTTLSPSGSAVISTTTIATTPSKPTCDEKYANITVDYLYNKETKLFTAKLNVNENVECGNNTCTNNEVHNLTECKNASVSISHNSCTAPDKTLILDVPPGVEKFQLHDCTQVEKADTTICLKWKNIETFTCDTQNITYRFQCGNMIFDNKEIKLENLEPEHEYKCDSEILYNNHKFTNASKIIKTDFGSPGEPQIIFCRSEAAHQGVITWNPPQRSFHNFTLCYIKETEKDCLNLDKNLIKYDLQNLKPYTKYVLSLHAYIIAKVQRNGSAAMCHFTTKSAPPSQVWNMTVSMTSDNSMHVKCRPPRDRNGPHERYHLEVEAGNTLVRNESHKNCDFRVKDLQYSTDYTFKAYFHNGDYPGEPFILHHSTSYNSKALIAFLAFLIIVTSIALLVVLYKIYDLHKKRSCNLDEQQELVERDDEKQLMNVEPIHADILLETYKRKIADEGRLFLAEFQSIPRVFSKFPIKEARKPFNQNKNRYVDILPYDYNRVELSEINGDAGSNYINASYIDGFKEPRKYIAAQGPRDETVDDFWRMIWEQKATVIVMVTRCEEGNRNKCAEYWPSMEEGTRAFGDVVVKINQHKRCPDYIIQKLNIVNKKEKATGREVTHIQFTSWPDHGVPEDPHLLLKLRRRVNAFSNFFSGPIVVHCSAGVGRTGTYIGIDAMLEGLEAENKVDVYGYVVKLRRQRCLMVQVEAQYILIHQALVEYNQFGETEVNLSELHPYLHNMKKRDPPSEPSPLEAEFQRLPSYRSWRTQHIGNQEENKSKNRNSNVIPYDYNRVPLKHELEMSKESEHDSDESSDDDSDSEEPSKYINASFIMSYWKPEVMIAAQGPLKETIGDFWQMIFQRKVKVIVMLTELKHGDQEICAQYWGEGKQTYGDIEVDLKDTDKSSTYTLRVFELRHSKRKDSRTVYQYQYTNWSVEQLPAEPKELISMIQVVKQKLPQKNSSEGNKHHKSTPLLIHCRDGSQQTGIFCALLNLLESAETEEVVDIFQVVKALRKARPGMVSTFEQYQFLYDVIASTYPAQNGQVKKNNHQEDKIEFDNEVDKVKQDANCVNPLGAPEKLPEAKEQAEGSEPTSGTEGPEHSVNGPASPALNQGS

human CD45 [2] = target: T1, human CD45; assay: cell-based or functional assay; remark: listed apart in the source
human CD45 [3] = target: T1, human CD45; assay: cell-based or functional assay; remark: listed apart in the source

Row | Molecule | EC50 (Nalm6 (CD45-)) | EC50 (293T (CD45-)) | Average EC50, viability assay, Jurkat (CD45+), 5 days (human CD45 [1]) | Average EC50, viability assay, OCIM1 (CD45+), 5 days (human CD45 [1]) | Average EC50, clonogenic assay, primary human CD34+ cells (human CD45 [2]) | EC50, clonogenic assay, CD34+ PBSC (CD45+) (human CD45 [3]) | EC50, viability assay, Jurkat (CD45+), 72 h (human CD45 [3]) | EC50, viability assay, OCIM1 (CD45+), 72 h (human CD45 [3])
1 | B1 | 27.9 pM | > 6000 pM | – | – | – | – | – | –
2 | B2 | – | – | 0.213 pM | 0.03 pM | 2.64 pM | 16.5 pM | 5.36 pM | 1.38 pM
3 | B3 | – | – | 2.12 pM | 0.025 pM | 32.7 pM | – | – | –
4 | B4 | – | – | 8.4 pM | 2.18 pM | 35.5 pM | – | – | –
5 | B5 | – | – | 0.052 pM | 0.096 pM | 4.92 pM | – | – | –
6 | B6 | – | – | – | – | – | 7.9 pM | 23 pM | 6.8 pM
7 | B7 | – | – | – | – | – | 6.4 pM | 18 pM | 9.7 pM
8 | B8 | – | – | 0.127 pM | 0.039 pM | 1.52 pM | 23 pM | 4.44 pM | 1.89 pM
9 | B9 | – | – | 2.43 pM | 0.58 pM | 23.9 pM | – | – | –
10 | B10 | – | – | 4.79 pM | 1.07 pM | 45.1 pM | – | – | –
11 | B11 | – | – | 0.091 pM | 0.22 pM | 4.47 pM | – | – | –
